{"source": "paper PMC3796545", "about": "“Protein-Protein Interactions as a Strategy towards Protein-Specific Drug Design: The Example of Ataxin-1” (PLoS ONE, 2013)", "parents": {"B1": {"name": "L-CICp [human] / ATX1 AXH (residues A567-K689 of human ATX1) [human] (parent complex)", "chain 1": "VFPWHSLVPFLAPSQ", "chain 2": "GAMAPPTLPPYFMKGSIIQLANGELKKVEDLKTEDFIQSAEISNDLKIDSSTVERIEDSHSPGVAVIQFAVGEHRAQVSVEVLVEYPFFVFGQGWSSCCPERTSQLFDLPCSKLSVGDVCISLTLK"}}, "data": [{"variants_of": "B1", "assay": "ITC; parent: 30 nM", "units": {"Kd": "nM"}, "values": [{"variant": "chain 1 VFPWHSLVPALAPSQ", "Kd": 60}, {"variant": "chain 1 VFPWHSLVPFLGPSQ", "Kd": 20}, {"variant": "chain 1 AFPWHSLVPFLAPSQ", "Kd": 20}, {"variant": "chain 1 VFPAHSLVPFLAPSQ", "Kd": 2600}, {"variant": "chain 1 VFPWHSLVAFLAPSQ", "Kd": 40}, {"variant": "chain 1 VFPWHSLVPFAAPSQ", "Kd": 50}, {"variant": "chain 1 VFPWHALVPFLAPSQ", "Kd": 10}, {"variant": "chain 1 VFPWASLVPFLAPSQ", "Kd": 50}, {"variant": "chain 1 VFPWHSLVPFLAASQ", "Kd": 20}, {"variant": "chain 1 VFPWHSAVPFLAPSQ", "Kd": 500}, {"variant": "chain 1 VFPWHSLAPFLAPSQ", "Kd": 70}, {"variant": "chain 1 VAPWHSLVPFLAPSQ", "Kd": 30}, {"variant": "chain 1 VFAWHSLVPFLAPSQ", "Kd": 40}]}]}
